We go through nine molecules from patent publication US20220195070A1 (Chugai, published 2022).

Where a chain is given by its changes, count along the chain named. Like-named read-outs stand apart in the source and are kept apart here.

The target of one assay is T1, Anti-IL-8 Antibody.
T1 construct: also called anti-human IL-8 antibody; Fc-Mutated Antibody
The assay is described as follows: SPR (Biacore T200), 25 C, pH 7.4; SKA antibody captured by anti-rabbit IgG, Anti-IL-8 Antibody injected 0-800 nM. The protocol: To confirm the binding ability of Anti Fc-Mutation Antibodies that show selective binding to SG115v1, KD values of Anti Fc-Mutation Antibodies against Anti-IL-8 Antibody at pH 7.4 were determined at 25 degrees C. using Biacore T200 instrument (GE Healthcare). Sequence of Fc region of Anti-IL-8 Antibody has high similarity to that of Anti-hC5 Antibody.
Anti-rabbit IgG (Abbexa) was immobilized onto FC1 and 2 of a CMS sensor chip using an amine coupling kit (GE Healthcare). For the immobilization of anti-rabbit IgG, HBS-EP+, pH7.4 (GE Healthcare) buffer was used as running buffer. After the immobilization, running buffer was changed to Phosphate pH7.4 buffer (50 mM phosphate buffer containing 150 mM NaCl and 0.05 w/v % P-20, pH 7.4). Each Anti Fc-Mutation Antibody was captured onto FC2 of the sensor chip by anti-rabbit IgG. The amount of Anti Fc-Mutation Antibody to be captured was adjusted so that the number of resonance units (RU) was 100. Anti-IL-8 Antibody was injected at 0, 100, 400, and 800 nM at 10 micro L/min. Sensor surface was regenerated after each cycle with 10 mM Glycine-HCl, pH2.0, which was injected at a flow rate of 30 micro L/min. KD values were obtained using Biacore T200 Evaluation software, version 2.0 (GE Healthcare).
(In general: In SPR one partner is held on a chip, and binding of the other changes the refractive index at the surface.)

Assay [1] has as its target T2, G4d (human, UniProt P01861 1-325 = IgG part).
T2 construct: Construct used in the ELISA is not described beyond the constant region
The assay is described as follows: ELISA, OD405 against dose (ng/mL, log axis 1-100). (In an ELISA, binding on a coated surface is turned into a signal by an enzyme label.)

Assay [2] deals with T3, SG115v1 (human, UniProt P01857 1-328 = IgG part).
T3 construct: Carries the CH2 modifications of SG115 (Arg235, Arg236, Lys239, EU); Construct used in the ELISA is not described beyond the constant region; also called modified IgG heavy chain constant region SG115v1
T3 sequence (P01857 other isoform, or with tags, fused parts or gaps limits assumed): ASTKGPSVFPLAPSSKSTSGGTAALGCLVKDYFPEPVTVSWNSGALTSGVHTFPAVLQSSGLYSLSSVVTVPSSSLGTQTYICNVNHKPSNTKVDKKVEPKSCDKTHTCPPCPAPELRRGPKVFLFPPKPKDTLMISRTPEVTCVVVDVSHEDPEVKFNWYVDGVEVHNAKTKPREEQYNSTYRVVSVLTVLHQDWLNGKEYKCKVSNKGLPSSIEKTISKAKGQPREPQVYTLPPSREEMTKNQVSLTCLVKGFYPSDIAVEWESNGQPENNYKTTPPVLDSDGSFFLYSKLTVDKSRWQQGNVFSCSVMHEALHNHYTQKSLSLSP
Put plainly: ELISA, OD405 against dose (ng/mL, log axis 1-100).

The target of assay [3] is T4, SG115 (human, UniProt P01857 1-328 = IgG part).
T4 construct: also called modified IgG heavy chain constant region SG115
T4 sequence (P01857 other isoform, or with tags, fused parts or gaps limits assumed): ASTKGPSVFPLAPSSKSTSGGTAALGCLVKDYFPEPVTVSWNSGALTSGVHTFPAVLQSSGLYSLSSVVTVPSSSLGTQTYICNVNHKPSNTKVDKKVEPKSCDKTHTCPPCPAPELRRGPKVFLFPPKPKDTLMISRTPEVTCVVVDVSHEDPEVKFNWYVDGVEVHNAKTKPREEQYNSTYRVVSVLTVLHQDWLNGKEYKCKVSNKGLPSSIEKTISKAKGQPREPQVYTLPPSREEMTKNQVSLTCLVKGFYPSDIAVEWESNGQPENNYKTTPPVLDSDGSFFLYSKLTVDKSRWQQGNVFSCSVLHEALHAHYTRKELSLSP
Put plainly: ELISA, OD405 against dose (ng/mL, log axis 1-100).

In assay [4] the target is T5, SG115v2 (human, UniProt P01857 1-328 = IgG part).
T5 construct: Carries the CH3 modifications of SG115 (Leu428, Ala434, Arg438, Glu440, EU); Construct used in the ELISA is not described beyond the constant region; also called modified IgG heavy chain constant region SG115v2
T5 sequence (P01857 other isoform, or with tags, fused parts or gaps limits assumed): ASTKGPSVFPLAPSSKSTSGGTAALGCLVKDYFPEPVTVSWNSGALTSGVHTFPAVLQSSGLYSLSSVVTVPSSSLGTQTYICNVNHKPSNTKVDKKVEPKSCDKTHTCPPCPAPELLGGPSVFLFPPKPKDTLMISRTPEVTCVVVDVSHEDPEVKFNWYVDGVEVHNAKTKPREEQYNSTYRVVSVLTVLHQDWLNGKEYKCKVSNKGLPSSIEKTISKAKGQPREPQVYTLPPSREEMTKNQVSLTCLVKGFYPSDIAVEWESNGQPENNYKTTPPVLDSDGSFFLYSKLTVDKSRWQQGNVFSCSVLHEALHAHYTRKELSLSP
The assay is described as follows: ELISA, OD405 against dose (ng/mL, log axis 1-100).

Assay [5] has as its target T6, Glm (human, UniProt P01857 1-328 = IgG part).
T6 construct: Construct used in the ELISA is not described beyond the constant region; also called G1m
The assay is described as follows: ELISA, OD405 against dose (ng/mL, log axis 1-100).

For assay [6], the target named is T2, G4d. The assay is described as follows: ELISA, OD405 against dose (ng/mL, log axis 1-100). The source holds these as a separate data set.
Assay [7] concerns the target T3, SG115v1. Put plainly: ELISA, OD405 against dose (ng/mL, log axis 1-100). This is another data set of the same source.
Assay [8] deals with T4, SG115. The assay is described as follows: ELISA, OD405 against dose (ng/mL, log axis 1-100). This is another data set of the same source.
Assay [9] addresses T5, SG115v2. The assay is described as follows: ELISA, OD405 against dose (ng/mL, log axis 1-100). This is another data set of the same source.
Assay [10] addresses T6, Glm. Put plainly: ELISA, OD405 against dose (ng/mL, log axis 1-100). The source holds these as a separate data set.

T1 sequence (constant, as listed by the source limits assumed): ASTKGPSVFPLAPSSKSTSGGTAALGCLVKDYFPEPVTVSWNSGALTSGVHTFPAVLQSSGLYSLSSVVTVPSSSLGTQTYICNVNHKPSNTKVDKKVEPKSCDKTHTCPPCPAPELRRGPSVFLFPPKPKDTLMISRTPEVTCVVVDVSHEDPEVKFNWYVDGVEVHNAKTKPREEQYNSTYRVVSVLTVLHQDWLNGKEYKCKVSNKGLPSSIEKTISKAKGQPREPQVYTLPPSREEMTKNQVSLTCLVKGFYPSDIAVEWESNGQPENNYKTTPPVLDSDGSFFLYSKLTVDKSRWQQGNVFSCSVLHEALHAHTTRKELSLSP
T2 sequence (P01861 1-325 S108P limits assumed): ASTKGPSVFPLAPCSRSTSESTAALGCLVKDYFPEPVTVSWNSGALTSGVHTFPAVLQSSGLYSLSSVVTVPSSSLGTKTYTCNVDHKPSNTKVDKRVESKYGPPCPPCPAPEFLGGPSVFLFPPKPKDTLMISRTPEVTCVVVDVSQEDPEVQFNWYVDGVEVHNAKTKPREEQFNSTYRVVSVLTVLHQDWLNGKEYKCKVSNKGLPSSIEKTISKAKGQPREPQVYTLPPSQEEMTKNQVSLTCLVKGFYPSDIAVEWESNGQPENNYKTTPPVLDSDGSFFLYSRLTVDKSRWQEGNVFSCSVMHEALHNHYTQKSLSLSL
T6 sequence (P01857 1-328 D239E/L241M limits assumed): as the sequence (constant, as listed by the source limits assumed) above, with R118L, R119G, G210A, S213A, S214P, L311M, A317N, T319Y, R321Q, E323S counted along it

B1: SKA0009 (antibody, V domains shown)
VH: QSVEESGGRLVTPGTSLTLTCTVSGIDLSSYGMGWVRQAPGMGLEYIGIIYAAGRTYYASWVKGRFIISKTSTTVDLEMTSLTTEDTATYFCARHGSWYAGMDLWGPGTLVTVSS
VL: AIEMTQTPSPVSAAVGGTVSINCQASEDIENYFAWYQQKPGQPPKLLIYDASELASGVPSRFSGSGSGTDFTLTISGVQCDDAATYYCQHADYAASSENTFGGGTEVVVKG
notes: Recombinant rabbit monoclonal from B-cell cloning, expressed in FreeStyle 293-F cells; the first screen used B-cell culture supernatant; also called Anti-SG115 Antibody; rabbit Anti Fc-Mutation Antibody
What is called Kd is the equilibrium constant for the complex coming apart. By koff is commonly meant a measure of how fast the partners let go of each other. A lower koff goes with slow dissociation. As a reminder, the kon is a measure of how fast the partners come together. The low end stands for slow association, the high end for fast association. As to B1, the equilibrium dissociation constant (Kd) with Anti-IL-8 Antibody came to 36.2 nM. Also, in the assay with Anti-IL-8 Antibody, the off-rate (koff) turned out to be 0.000904 s⁻¹. In addition, the association rate constant (kon) with Anti-IL-8 Antibody was 25000 M⁻¹ s⁻¹. The binding result with G4d [1] is recorded as “no binding (tested: about 60 ng/mL)”; with SG115v1 [2], “binds”; in the assay with SG115 [3], “binds”; in the assay with SG115v2 [4] it was “no binding (tested: about 60 ng/mL)”; with Glm [5] it was “no binding (tested: about 60 ng/mL)”.

B2: SKA0171 (antibody, V domains shown)
VH: QSLEESGGGLVQPEGSLTLSCTASGFSFSSSYYMCWVRQAPGKGLEWIACIYGGNSVITYYANWAKGRFTISETSSTTVTLQMTSLTAADTATYFCAREVHYDYLYTTYGYANLWGPGTLVTVSS
VL: AIKMTQTPASVSAVVGGTVTINCQASETIYSGLAWYQQKPGQPPKLLIYDTANLETGVSSRFKGSGSGTEYTLTISDLECDDAATYFCLYAYYSGGSADNAFGGGTEVVVKG
notes: as for B1
As for B2, the binding result with G4d [6] is recorded as “no binding (tested: about 60 ng/mL)”; in the assay with SG115v1 [7], “no binding (tested: about 60 ng/mL)”; in the assay with SG115 [8], “binds”; with SG115v2 [9] it was “binds”; with Glm [10], “no binding (tested: about 60 ng/mL)”.

B3: SKA0117 (antibody, V domains shown)
VH: QSLEESGGDLVKPEGSLTLTCTASGFSFSSSHYMCWVRQAPGKGLEWIACIYAGSSDNTYYASWAKGRFTISKTSSTTVTLQMTSLTAADTATYFCARDTYGYVGYASAGGFFNLWGPGTLVTVSS
VL: ALVMTQTPASVSAAVGGTVTINCQASHNIYSVLAWYQQKPGQRPRLLIYGASNLESGVPSRFKGSGSGTEYTLTISDLECDDAATYYCQSAYYSSSTGDNAFGGGTEVVVKG
notes: as for B1
For B3, the binding result with G4d [6] was “no binding (tested: about 60 ng/mL)”; in the assay with SG115v1 [7], “no binding (tested: about 60 ng/mL)”; in the assay with SG115 [8], “binds”; in the assay with SG115v2 [9], “binds”; with Glm [10], “no binding (tested: about 60 ng/mL)”.

B4: SKA0141 (antibody, V domains shown)
VH: QSLEESGGDLVKPGASLTLTCTASGFSFSSSYYMCWVRQAPGKGLEWIACIYAGSSGSTYYASWAKGRFTISKTSSTTVTLQMTSLTAADTATYFCARDGDENMLVGGYFNLWGPGTLVTVSS
VL: B3 VL with A9S, V32N, R45K, S96N, T97A, D99Y
notes: as for B1
With B4, the binding result in the assay with G4d [6] is “no binding (tested: about 60 ng/mL)”; with SG115v1 [7], “no binding (tested: about 60 ng/mL)”; with SG115 [8], “binds”; in the assay with SG115v2 [9], “binds”; with Glm [10], “no binding (tested: about 60 ng/mL)”.

B5: SKA0046 (antibody, V domains shown)
VH: QEQLVESGGGLVQPEGSLTLTCTASGFSLSSSNYMWWVRQAPGKGLEWIACIHASSSGDTYYANWAKGRFTISKTSSTTVTLQMTSLTAADTATYFCARGGYIYGDGGYNGVAGFSLWGPGTLVTVSS
VL: DVVMTQTPASVSEPVGGTVTIKCQASETIGNALAWYQQKPGQRPKLLIYGASNLESGVPSRFKGSGSGTEFTLTISDVQCDDAATYYCQSIYYSSSADTFFFPFGGGTEVVVKG
notes: as for B1
In the case of B5, in the assay with Anti-IL-8 Antibody, binding was characterised by a dissociation constant (Kd) of 49.6 nM. In addition, the off-rate constant (koff) with Anti-IL-8 Antibody came out at 0.00209 s⁻¹. The molecule further came in with an on-rate (kon) with Anti-IL-8 Antibody of 42000 M⁻¹ s⁻¹. For the same molecule, the binding result in the assay with G4d [1] is given as “no binding (tested: about 60 ng/mL)”; in the assay with SG115v1 [2], “binds”; with SG115 [3] it was “binds”; in the assay with SG115v2 [4], “no binding (tested: about 60 ng/mL)”; with Glm [5], “no binding (tested: about 60 ng/mL)”.

B6: SKA0001 (antibody, V domains shown)
VH: QSVEESGGRLVTPGTPLTLTCTVSGFSLSYYAMNWVRQAPGKGLEWIGIIGISGGTYYASWAKGRFTISKSSSTTVDLKMTSPTTEDTATYFCARGGSAWGDLWGQGTLVTVSS
VL: DIVMTQTPSSVSAAVGGTVTINCQASQSISRLLAWYQQKPGQPPKVLMHDASDLASGVPSRFKGSGSGTEYTLTISDLECADAATYYCQSYYWGSSGDIGYPFGGGTEVVVKG
notes: as for B1
With B6, the binding result with G4d [1] is “no binding (tested: about 60 ng/mL)”; with SG115v1 [2], “no binding (tested: about 60 ng/mL)”; in the assay with SG115 [3], “binds”; in the assay with SG115v2 [4] it was “binds”; with Glm [5] it was “no binding (tested: about 60 ng/mL)”.

B7: SKA0028 (antibody, V domains shown)
VH: QSVEESGGRLVTPGTPLTLTCTASGFTISSYHMSWVRQAPGKGLEWIGIIHGSGNMWYASWAKGRFTISRTSTTVDLEITSPTTEDTATYFCARIRFWASSNYYYFYLWGQGTLVTVSS
VL: ALVMTQTPASVSEPVGGTVTINCQASQNIYSNLAWYQQKPGQRPRLLIYGASNLESGVPSRFRGSGSGTEFTLTISDLECADAATYYCQSAYWGNNNDGAFGGGTEVVVKG
notes: as for B1
Consider B7, for which the binding result is “no binding (tested: about 60 ng/mL)” with G4d [1]; “no binding (tested: about 60 ng/mL)” in the assay with SG115v1 [2]; “binds” with SG115 [3]; “binds” with SG115v2 [4]; “no binding (tested: about 60 ng/mL)” in the assay with Glm [5].

B8: SKA0016 (antibody, V domains shown)
VH: QEQLVESGGGLVQPEGSLTLTCTASGFSFSSSDYMCWVRQAPGKGLEWIACIYIGSNGDTFYASWAKGRFTISKTSSTTVTLQMTSLTAADTATYFCARDSRRADDYGTRLDLWGQGTLVTVSS
VL: DIVMTQTPSSVSAAVGGTVTIKCQASQNIYRNLAWYQQKPGQPPKLLIYQASKLESGVPSRFKGSGSGTEFTLTISDLDCDDAASYYCQSISYISSGDTFFWAFGGGTEVVVKG
notes: as for B1
Consider B8, for which the affinity in the assay with Anti-IL-8 Antibody, expressed as Kd, was 60 nM. In the assay with Anti-IL-8 Antibody, this molecule showed a dissociation rate constant (koff) of 0.00071 s⁻¹. Moreover, in the assay with Anti-IL-8 Antibody, the kon came out at 11800 M⁻¹ s⁻¹. The binding result in the assay with G4d [1] is on record as “no binding (tested: about 60 ng/mL)”; with SG115v1 [2], “binds”; in the assay with SG115 [3], “binds”; with SG115v2 [4], “no binding (tested: about 60 ng/mL)”; with Glm [5] it was “no binding (tested: about 60 ng/mL)”.

B9: SKA0027 (antibody, V domains shown)
VH: QEQLVESGGGLVQPEGSLTLTCTASGFSFSSSDYMCWVRQAPGKGLEWIGCIYTGSGSTYYASWAKGRFTISKTSSTTVTLQMTSLTAADTATFFCARRGDSYSNYSFKLWGPGTLVTVSS
VL: AFELTQTPASVEAAVGGTVTIKCQASQNIYSNLAWYQQKPGQPPKLLIYTASSLASGVSSRFKGSGSGTEFTLTISDLECDDAATYYCQCTYINNGYGNTFGGGTEVVVKG
notes: as for B1
B9: the binding result with G4d [1] was “no binding (tested: about 60 ng/mL)”; in the assay with SG115v1 [2], “no binding (tested: about 60 ng/mL)”; with SG115 [3], “binds”; with SG115v2 [4] it was “binds”; with Glm [5], “no binding (tested: about 60 ng/mL)”.
